This note sets out measurements from the supplement of paper PMC10567573.

B1: DYRK1B (parent)
chain: ARKYFERLPGGGWTLRRTKELRKD
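Note: lentivirally expressed fusions sorted by FACS into six bins by GFP to DsRed ratio, PSI derived from sequencing read proportions per bin multiplied by bin number.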

The variants in this data set derive from B1. Kind of data set: protein stability index of a GFP-peptide fusion (GPS, HEK-293T) (PSI 1-6); higher = more stable. As to conditions: c terminus: a fixed tail appended.
Regarding ARKYFERLPGMGWTLRRTKELRKD [G11M], the protein stability index came to 2.78.
Consider ARKYFERLPGNGWTLRRTKELRKD [G11N], for which the protein stability index was 3.17.
The value for ARKYFERLPGTGWTLRRTKELRKD [G11T] was 3.46; that for ARKYFERLPGIGWTLRRTKELRKD [G11I] was 2.79.
The value for ARKYFERLPGHGWTLRRTKELRKD [G11H] was 2.4.
As to ARKYFERLPGCGWTLRRTKELRKD [G11C], the protein stability index was determined as 3.26.
The value for ARKYFERLPGLGWTLRRTKELRKD [G11L] was 3.11; that for ARKYFERLPGFGWTLRRTKELRKD [G11F] was 2.89.
The value for ARKYFERLPGSGWTLRRTKELRKD [G11S] was 2.49.
On to ARKYFERLPGDGWTLRRTKELRKD [G11D], for which the protein stability index turned out to be 2.93.
As to ARKYFERLPGKGWTLRRTKELRKD [G11K], the protein stability index is 2.06.
The value for ARKYFERLPGPGWTLRRTKELRKD [G11P] was 2.74; that for ARKYFERLPGYGWTLRRTKELRKD [G11Y] was 2.73.
The value for ARKYFERLPGWGWTLRRTKELRKD [G11W] was 2.82; that for ARKYFERLPGQGWTLRRTKELRKD [G11Q] was 3.34.
The value for ARKYFERLPGVGWTLRRTKELRKD [G11V] was 2.48.
Consider ARKYFERLPGGGWTLRRTMELRKD [K19M], for which the protein stability index is 2.73.
The value for ARKYFERLPGGGWTLRRTWELRKD [K19W] was 2.35; that for ARKYFERLPGGGWTLRRTIELRKD [K19I] was 2.87; that for ARKYFERLPGGGWTLRRTHELRKD [K19H] was 3.08.
As for ARKYFERLPGGGWTLRRTDELRKD [K19D], the protein stability index stood at 4.88.
The value for ARKYFERLPGGGWTLRRTTELRKD [K19T] was 3.41; that for ARKYFERLPGGGWTLRRTPELRKD [K19P] was 3.97; that for ARKYFERLPGGGWTLRRTSELRKD [K19S] was 3.82.
The value for ARKYFERLPGGGWTLRRTFELRKD [K19F] was 3.01; that for ARKYFERLPGGGWTLRRTYELRKD [K19Y] was 3.25.
The value for ARKYFERLPVGGWTLRRTKELRKD [G10V] was 3.45; that for ARKYFERLPNGGWTLRRTKELRKD [G10N] was 4.09; that for ARKYFERLPTGGWTLRRTKELRKD [G10T] was 3.19.
ARKYFERLPFGGWTLRRTKELRKD [G10F]: the protein stability index turned out to be 2.63.
For the variant ARKYFERLPYGGWTLRRTKELRKD [G10Y], the protein stability index is 2.35.
Take ARKYFERLPRGGWTLRRTKELRKD [G10R]: the protein stability index came to 3.75.
For the variant ARKYFERLPIGGWTLRRTKELRKD [G10I], the protein stability index was determined as 2.38.
The value for ARKYFERLPSGGWTLRRTKELRKD [G10S] was 3.19.
The value for ARKYFERLPDGGWTLRRTKELRKD [G10D] was 4.16; that for ARKYFERLPAGGWTLRRTKELRKD [G10A] was 2.93; that for ARKYFERLPWGGWTLRRTKELRKD [G10W] was 2.97.
Regarding ARKYFERLPMGGWTLRRTKELRKD [G10M], the protein stability index was determined as 3.27.
On to ARKYFERLPGGGWTLRRTKILRKD [E20I], for which the protein stability index was found to be 2.04.
With ARKYFERLPGGGWTLRRTKDLRKD [E20D], the protein stability index is 3.65.
The value for ARKYFERLPGGGWTLRRTKNLRKD [E20N] was 3.14; that for ARKYFERLPGGGWTLRRTKRLRKD [E20R] was 3.3; that for ARKYFERLPGGGWTLRRTKHLRKD [E20H] was 1.79.
The value for ARKYFERLPGGGWTLRRTKYLRKD [E20Y] was 3.6.
ARKYFERLPGGGWTLRRTKFLRKD [E20F]: the protein stability index was determined as 3.57.
Consider ARKYFERLPGGGWTLRRTKLLRKD [E20L], for which the protein stability index was 3.23.
ARKYFERLPGGGWTLRRTKKLRKD [E20K]: the protein stability index was 2.89.
For ARKYFERLPGGGWTLRRTKQLRKD [E20Q], the protein stability index turned out to be 3.26.
The value for ARKYFERLPGGGWTLRRTKSLRKD [E20S] was 3.34; that for ARKYFERLPGGGWTLRRTKCLRKD [E20C] was 3.69.
The value for ARKYFERLPGGGWTLRRTKALRKD [E20A] was 4.5; that for ARKYFERLPGGGWTLRRTKTLRKD [E20T] was 3.27.
The value for ARKYFERLPGGGWTLRRTKMLRKD [E20M] was 3.38; that for ARKYFERLPGGGWTLRRTKWLRKD [E20W] was 2.76; that for ARKYFERLPGGGWTLRRTKGLRKD [E20G] was 4.17.
For the variant ARKYFERLPGGGWTLRRTKVLRKD [E20V], the protein stability index was 3.47.
The value for ARKYFERLPGGGWTLRRMKELRKD [T18M] was 3.88.
The value for ARKYFERLPGGGWTLRRDKELRKD [T18D] was 4.05.
The value for ARKYFERLPGGGWTLRRVKELRKD [T18V] was 3.69; that for ARKYFERLPGGGWTLRRYKELRKD [T18Y] was 2.26.
For ARKYFERLPGGGWTLRRIKELRKD [T18I], the protein stability index worked out at 3.93.
The value for ARKYFERLPGGGWTLRRRKELRKD [T18R] was 3.72.
The value for ARKYFERLPGGGWTLRRPKELRKD [T18P] was 3.57.
The value for ARKYFERLPGGGWTLRRLKELRKD [T18L] was 1.73; that for ARKYFERLVGGGWTLRRTKELRKD [P9V] was 2.96.
In the case of ARKYFERLYGGGWTLRRTKELRKD [P9Y], the protein stability index worked out at 1.9.
The value for ARKYFERLWGGGWTLRRTKELRKD [P9W] was 2.11.
The value for ARKYFERLNGGGWTLRRTKELRKD [P9N] was 1.97; that for ARKYFERLCGGGWTLRRTKELRKD [P9C] was 1.91.
The value for ARKYFERLFGGGWTLRRTKELRKD [P9F] was 1.87; that for ARKYFERLTGGGWTLRRTKELRKD [P9T] was 3.02; that for ARKYFERLHGGGWTLRRTKELRKD [P9H] was 2.48.
Turning to ARKYFERLLGGGWTLRRTKELRKD [P9L], the protein stability index is 2.43.
The value for ARKYFERLEGGGWTLRRTKELRKD [P9E] was 3.41; that for ARKYFERLQGGGWTLRRTKELRKD [P9Q] was 3.67.
The value for ARKYFERLIGGGWTLRRTKELRKD [P9I] was 2.13.
The value for ARKYFERLDGGGWTLRRTKELRKD [P9D] was 4.24; that for ARKYFERLKGGGWTLRRTKELRKD [P9K] was 2.5.
As to ARKYFERLRGGGWTLRRTKELRKD [P9R], the protein stability index is 3.22.
The value for ARKYFERLAGGGWTLRRTKELRKD [P9A] was 2.83.
The value for ARKYFERLPGGGWTLRRTKELGKD [R22G] was 4.3; that for ARKYFERLPGGGWTLRRTKELAKD [R22A] was 4.14.
For ARKYFERLPGGGWTLRRTKELFKD [R22F], the protein stability index is 3.59.
Consider ARKYFERLPGGGWTLRRTKELEKD [R22E], for which the protein stability index worked out at 4.04.
The value for ARKYFERYPGGGWTLRRTKELRKD [L8Y] was 4.07; that for ARKYFERQPGGGWTLRRTKELRKD [L8Q] was 3.38.
The value for ARKYFERVPGGGWTLRRTKELRKD [L8V] was 3.84; that for ARKYFERNPGGGWTLRRTKELRKD [L8N] was 3.4; that for ARKYFERRPGGGWTLRRTKELRKD [L8R] was 3.25.
The value for ARKYFERSPGGGWTLRRTKELRKD [L8S] was 5.45; that for ARKYFERTPGGGWTLRRTKELRKD [L8T] was 4.18; that for ARKYFERPPGGGWTLRRTKELRKD [L8P] was 3.85.
In the case of ARKYFERWPGGGWTLRRTKELRKD [L8W], the protein stability index worked out at 2.13.
ARKYFERLPGGGWTLMRTKELRKD [R16M]: the protein stability index was 1.97.
